For this assay, the target named is CD40L (human) (UniProt P29965). The experiment in a line: cell-based or functional assay.
UniProt P29965, sequence (P29965 whole entry): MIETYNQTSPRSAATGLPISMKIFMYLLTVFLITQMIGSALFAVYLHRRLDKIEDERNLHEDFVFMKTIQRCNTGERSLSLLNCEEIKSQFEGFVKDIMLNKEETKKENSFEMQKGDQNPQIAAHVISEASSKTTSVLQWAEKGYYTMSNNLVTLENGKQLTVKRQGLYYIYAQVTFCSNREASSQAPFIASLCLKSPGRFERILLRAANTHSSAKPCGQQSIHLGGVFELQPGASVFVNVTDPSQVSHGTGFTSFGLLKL

Turning to “CD40L blocking antibody (clone MK13A4; Enzo Life Sciences Cat #ALX-805-037-C100)”, the abrogation of intracellular p24 expression was found to be 90.8%, the inhibition of CD4 downregulation (flow cytometry of MDC1/SEB-activated CD4+ T cells) was determined as 87.7% and the reduction in HIV-1 RNA content in the day 7 co-culture supernatants measured by qRT-PCR worked out at 94.1%.

Values taken from patent US20220249653A1.
